Laboratory results: patent US20170151343A1 (AbbVie / Abbott, published 2017)

T1: human LRRC15 (leucine-rich repeat-containing protein 15), expressed on cells (human, UniProt Q8TF66 22-581)
T1 sequence: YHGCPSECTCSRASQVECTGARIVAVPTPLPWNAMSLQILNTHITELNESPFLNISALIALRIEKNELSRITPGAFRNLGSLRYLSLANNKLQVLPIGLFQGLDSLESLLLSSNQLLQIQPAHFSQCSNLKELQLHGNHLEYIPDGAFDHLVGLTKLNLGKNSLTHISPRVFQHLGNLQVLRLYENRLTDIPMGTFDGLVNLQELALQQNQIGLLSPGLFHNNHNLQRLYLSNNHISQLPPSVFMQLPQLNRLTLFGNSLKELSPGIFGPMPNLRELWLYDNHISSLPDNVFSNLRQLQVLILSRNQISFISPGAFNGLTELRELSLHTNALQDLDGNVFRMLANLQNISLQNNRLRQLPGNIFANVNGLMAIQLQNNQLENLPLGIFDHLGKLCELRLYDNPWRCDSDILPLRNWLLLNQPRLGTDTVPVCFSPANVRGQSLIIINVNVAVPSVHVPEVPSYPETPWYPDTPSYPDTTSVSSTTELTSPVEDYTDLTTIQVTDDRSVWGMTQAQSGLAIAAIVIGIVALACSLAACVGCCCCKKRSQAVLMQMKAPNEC

T2: huLRRC15-Fc fusion protein (huLRRC15 ECD residues 22 to 526 of SEQ ID NO:3 fused to Fc) (human, UniProt Q8TF66 22-526)
T2 construct: Coated on the ELISA plate at 2 ug/mL; also called huLRRC15-ECD-Fc; huLRRC15 fusion ECD protein
T2 sequence: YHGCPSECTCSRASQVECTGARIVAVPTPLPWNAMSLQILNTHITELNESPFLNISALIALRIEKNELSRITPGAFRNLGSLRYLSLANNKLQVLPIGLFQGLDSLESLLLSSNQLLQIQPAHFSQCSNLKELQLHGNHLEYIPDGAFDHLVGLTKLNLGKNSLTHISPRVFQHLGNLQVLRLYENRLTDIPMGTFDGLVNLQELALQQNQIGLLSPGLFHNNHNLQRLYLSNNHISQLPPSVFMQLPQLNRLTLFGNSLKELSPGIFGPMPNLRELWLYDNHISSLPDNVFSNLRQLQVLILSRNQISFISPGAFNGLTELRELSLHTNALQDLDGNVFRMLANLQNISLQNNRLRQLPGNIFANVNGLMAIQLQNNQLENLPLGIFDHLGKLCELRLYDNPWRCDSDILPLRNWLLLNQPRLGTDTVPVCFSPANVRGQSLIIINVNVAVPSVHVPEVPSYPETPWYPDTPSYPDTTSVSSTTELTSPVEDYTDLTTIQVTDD

B1: huM25-mcMMAF-E2 (antibody, human IgG1, kappa)
heavy: not shown
light: DIQMTQSPSSLSASVGDRVTITCRASQDISNYLNWYQQKPGGAVKFLIYYTSRLHSGVPSRFSGSGSGTDYTLTISSLQPEDFATYFCQQGEALPWTFGGGTKVEIKRTVAAPSVFIFPPSDEQLKSGTASVVCLLNNFYPREAKVQWKVDNALQSGNSQESVTEQDSKDSTYSLSSTLTLSKADYEKHKVYACEVTHQGLSSPVTKSFNRGEC
modifications: mcMMAF (maleimidocaproyl monomethyl auristatin F) on cysteines of reduced interchain disulfides, two drugs per antibody (E2); which chain carries them is not stated
B2: huM25-vcMMAE-E2 (antibody, human IgG1, kappa)
heavy: not shown
light: DIQMTQSPSSLSASVGDRVTITCRASQDISNYLNWYQQKPGGAVKFLIYYTSRLHSGVPSRFSGSGSGTDYTLTISSLQPEDFATYFCQQGEALPWTFGGGTKVEIKRTVAAPSVFIFPPSDEQLKSGTASVVCLLNNFYPREAKVQWKVDNALQSGNSQESVTEQDSKDSTYSLSSTLTLSKADYEKHKVYACEVTHQGLSSPVTKSFNRGEC
modifications: vcMMAE (maleimidocaproyl-Val-Cit-PABA-monomethyl auristatin E) on cysteines of reduced interchain disulfides, two drugs per antibody (E2); which chain carries them is not stated
B3: huM25-S239C-PBD-E2 (antibody, human IgG1, kappa)
heavy: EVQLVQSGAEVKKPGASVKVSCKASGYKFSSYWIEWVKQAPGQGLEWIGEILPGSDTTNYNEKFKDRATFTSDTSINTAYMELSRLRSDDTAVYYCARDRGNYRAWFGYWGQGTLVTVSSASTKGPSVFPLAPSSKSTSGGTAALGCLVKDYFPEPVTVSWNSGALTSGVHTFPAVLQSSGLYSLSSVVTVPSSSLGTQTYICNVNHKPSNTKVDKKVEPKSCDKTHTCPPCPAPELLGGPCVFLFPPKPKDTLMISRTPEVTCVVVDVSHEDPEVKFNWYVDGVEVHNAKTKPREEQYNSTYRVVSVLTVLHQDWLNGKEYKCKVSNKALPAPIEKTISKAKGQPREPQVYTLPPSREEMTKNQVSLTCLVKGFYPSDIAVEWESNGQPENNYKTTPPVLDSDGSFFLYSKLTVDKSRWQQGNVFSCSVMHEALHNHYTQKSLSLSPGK
light: DIQMTQSPSSLSASVGDRVTITCRASQDISNYLNWYQQKPGGAVKFLIYYTSRLHSGVPSRFSGSGSGTDYTLTISSLQPEDFATYFCQQGEALPWTFGGGTKVEIKRTVAAPSVFIFPPSDEQLKSGTASVVCLLNNFYPREAKVQWKVDNALQSGNSQESVTEQDSKDSTYSLSSTLTLSKADYEKHKVYACEVTHQGLSSPVTKSFNRGEC
modifications: vaPBD (Val-Ala pyrrolobenzodiazepine dimer synthon) on the engineered cysteine S239C, DAR2
B4: huM25 (antibody, human IgG1, kappa)
heavy: not shown
light: DIQMTQSPSSLSASVGDRVTITCRASQDISNYLNWYQQKPGGAVKFLIYYTSRLHSGVPSRFSGSGSGTDYTLTISSLQPEDFATYFCQQGEALPWTFGGGTKVEIKRTVAAPSVFIFPPSDEQLKSGTASVVCLLNNFYPREAKVQWKVDNALQSGNSQESVTEQDSKDSTYSLSSTLTLSKADYEKHKVYACEVTHQGLSSPVTKSFNRGEC
notes: Humanized IgG1 kappa; also called huM25-AF647
B5: muAD210.40.9 (antibody, V domains shown)
VH: QVQLQQSGAELVRPGTSVKISCKASGYDFTNYWLGWVKQRPGHGLEWIGDIYPGGGNTYYNEKLKGKATLTADKSSSTAYIHLISLTSEDSSVYFCARWGDKKGNYFAYWGQGTLVTVSA
VL: QIVLTQSPAIMSASLGERVTMTCTASSSVYSSYLHWYQQKPGSSPKLWIYSTSNLASGVPGRFSGSGSGTSYSLTISSMEAEDAATYYCHQYHRSPTFGGGTKLEIK
notes: Murine antibody; Compared with a muIgG2a isotype control
B6: huAD208.12.1 (antibody, V domains shown)
VH: EVQLVQSGAEVKKPGSSVKVSCKASGYTFTNYWMHWVKQAPGQGLEWIGMIHPNSGSTKHNEKFRGKATLTVDESTTTAYMELSSLRSEDTAVYYCARSDFGNYRWYFDVWGQGTTVTVSS
VL: EIVLTQSPATLSLSPGERATLSCRASQSSSNNLHWYQQKPGQAPRVLIKYVSQSISGIPARFSGSGSGTDFTLTISSLEPEDFAVYFCQQSNSWPFTFGQGTKLEIK
notes: Humanized full-length antibody
B7: hu139.10 (antibody, V domains shown)
VH: EVQLVESGGGLVQPGGSLRLSCAVSGFSLTSYGVHWVRQATGKGLEWLGVIWAGGSTNYNSALMSRLTISKENAKSSVYLQMNSLRAGDTAMYYCATHMITEDYYGMDYWGQGTTVTVSS
VL: DIVMTQSPDSLAVSLGERATINCKSSQSLLNSRTRKNYLAWYQQKPGQSPKLLIYWASTRESGVPDRFSGSGSGTDFTLTISSLQAEDVAVYYCKQSYNLPTFGGGTKVEIK
notes: Humanized full-length antibody; Compared with a huIgG1 isotype control
B8: huAD208.4.1 (antibody, V domains shown)
VH: EVQLVQSGAEVKKPGSSVKVSCKASGFTFTDYYIHWVKQAPGQGLEWIGLVYPYIGGTNYNQKFKGKATLTVDTSTTTAYMEMSSLRSEDTAVYYCARGDNKYDAMDYWGQGTTVTVSS
VL: DIVLTQSPDSLAVSLGERATINCRASQSVSTSSYSYMHWYQQKPGQPPKLLIKYASSLESGVPDRFSGSGSGTDFTLTISSLQAEDVAVYYCEQSWEIRTFGGGTKVEIK
notes: Humanized full-length antibody, compared with a huIgG1 isotype control
B9: huAD208.14.1 (antibody, V domains shown)
VH: EVQLVQSGAEVKKPGSSVKVSCKASGFTFTDYYIHWVKQAPGQGLEWIGLVYPYIGGSSYNQQFKGKATLTVDTSTSTAYMELSSLRSEDTAVYYCARGDNNYDAMDYWGQGTTVTVSS
VL: DIVLTQSPDSLAVSLGERATISCRASQSVSTSTYNYMHWYQQKPGQPPKLLVKYASNLESGVPDRFSGSGSGTDFTLTISSLQAEDVAVYYCHHTWEIRTFGGGTKVEIK
notes: as for B7
B10: muAD209.9.1 (antibody, V domains shown)
VH: QIQLVQSGPELKKPGETVKISCKASGFAITNFGMNWVKQAPGKGLKWMGWINLYTGEPTFADDFKGRFAFSLETSASTAYLQINNLKNEDTVIYFCARKGETYYRYDGFAYWGQGTLVTVSA
VL: DIVMTQAAPSVPVTPGESVSISCRSSKSLLHSNGNTHLYWFLQRPGQSPQLLIYRMSNLASGVPDRFSGSGSGTAFTLRISRVEAEDVGVYYCMQLLEYPYTFGGGTKLEIE
notes: as for B5

Legend:
[1] = biological target: T1, human LRRC15 (leucine-rich …); assay: cell-based or functional assay
[2] = biological target: T1, human LRRC15 (leucine-rich …); assay: flow cytometry on U118MG cells
Source text: Isotype control antibodies (mouse or human) were used as appropriate.

[3] = biological target: T2, huLRRC15-Fc fusion protein (huLRRC15 …); assay: ELISA on coated huLRRC15-ECD-Fc
Description: 96-well Immulon 4HBX plates (Thermo, cat. #3855) were coated with 100 μL/well of this huLRRC15 fusion ECD protein at 2 μg/mL in carbonate-bicarbonate buffer (Thermo, cat.#28382) pH 9.4 and allowed to bind overnight at 4° C. Plates were washed three times with PBST and then incubated with various concentrations of antibodies in PBST+0.3% BSA at room temperature for one hour. […] Plates were washed three times in PBST and 100 μL of TMB (Surmodics BioFx cat.# TMBW-1000-01) was added to each well and incubated at RT until color developed (approximately 10 minutes). Reactions were stopped by the addition of 650 nm Stop Reagent for TMB (Surmodics BioFx, cat.# BSTP-0100-01), and optical density (OD) was read at 650 nm (Molecular Devices Versamax PLUS).

[4] = biological target: T1, human LRRC15 (leucine-rich …); assay: flow cytometry competition on U118MG cells; unlabeled antibody titrated against muM25-AF488 at 1 ug/ml, GeoMean normalized to muM25-AF488 alone

Row | Binder | EC50 [2] [nM] | EC50 [3] [nM] | other results
1 | B1 |  |  | in vitro killing of HCT116-huLRRC15 cells, EC50 [1]: 0.028 nM
2 | B2 |  |  | in vitro killing of HCT116-huLRRC15 cells, EC50 [1]: 0.069 nM
3 | B3 |  |  | in vitro killing of A549-EMT transformed cells treated with TGFbeta, EC50 [1]: 0.01 nM
4 | B4 | 0.498 | 0.26 | IC50 (read off the curve) [4]: ~0.4 µg/mL
5 | B5 | 0.08 |  | 
6 | B6 |  |  | binding result [2]: binds
7 | B7 | 0.28 | 0.11 | 
8 | B8 | 0.29 | 0.25 | 
9 | B9 | 5.25 | 0.8 | 
10 | B10 | 0.787 | 0.14 | 
